According to the supplement of paper PMC9732359:
± gives the uncertainty stated by the source.

Assay: protein stability index of a GFP-peptide fusion (yeast GPS) (PSI 1-4); higher = more stable; sorted into four equal gates, so the index is relative within each strain
Procedure, shortened: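 Tiled yeast protein peptides of 17 residues were each joined downstream of GFP, on plasmids that also express Cherry. The pooled library was maintained in yeast, and mid-log cultures in leucine-free medium were sorted into four equal gates on the GFP/Cherry ratio. Plasmids from every gate were amplified by PCR and sequenced on Illumina, with barcodes linking reads to strains. The protein stability index of a peptide is its gate-number-weighted read frequency summed over the gates.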

Sequence | protein stability index (doa10∆) | protein stability index (pdr5∆) | protein stability index (san1∆) | protein stability index (ubr1∆)
RGDSTETSSFGSMFSGD [RRI1] | 3.5 ± 0.087 | 3.27 ± 0.16 | 3.35 ± 0.053 | 3.27 ± 0.15
VITLLNNSSITLRCSVV [YCS4] | 2.04 ± 0.06 | 1.2 ± 0.062 | 1.21 ± 0.12 | 1.16 ± 0.051
DDQCMLITTYSKLSKNI [SIN4] | 1.97 ± 0.065 | 2.42 ± 0.076 | 1.87 ± 0.2 | 2.01 ± 0.038
GYKSTVKSLRQGKSKLI [RPL30] | 1.31 ± 0.08 | 1.35 ± 0.059 | 1.4 ± 0.2 | 1.48 ± 0.061
TDVEKSDPAAKKTATEP [SRP21] | 3.2 ± 0.11 | 3.02 ± 0.085 | 3.32 ± 0.046 | 3.18 ± 0.096
ITRFGLSKMRDSVLQLA [RPO31] | 3.32 ± 0.14 | 2.96 ± 0.14 | 3.17 ± 0.08 | 3.44 ± 0.15
IVRDLDRPGSKFHKREV [RPL3] | 3.07 ± 0.14 | 3.44 ± 0.28 | 2.92 ± 0.3 | 3.14 ± 0.16
RMYEEASGKEVEKVATA [RPN2] | 2.67 ± 0.25 | – | – | –
QRDFRKHGAVHMSTYLK [RPL21B] | 2.65 ± 0.048 | 2.42 ± 0.042 | 2.48 ± 0.054 | 2.8 ± 0.038
YIELLPNADDIRDSIPQ [DIS3] | 2.83 ± 0.075 | 2.85 ± 0.068 | 2.87 ± 0.078 | 2.75 ± 0.039
HLAVVCVDDNSKISFID [SSN2] | – | 2.84 ± 0.17 | – | 3.67 ± 0.16
VLIANDVDPIELVVFLP [RPL8A] | 2.42 ± 0.24 | 2.85 ± 0.077 | 3.13 ± 0.087 | 3 ± 0.058
KPNDLVGVNKDSYLILD [RPT5] | 3.05 ± 0.17 | 3.4 ± 0.19 | 3.35 ± 0.082 | 3.49 ± 0.14
DINTVNTNLMNGVNVQI [GRR1] | 3.21 ± 0.097 | 3 ± 0.087 | 2.98 ± 0.074 | 3.06 ± 0.073
ASKTNLRLTDVTNSLSN [GAL11] | 3.15 ± 0.072 | 3.38 ± 0.067 | 2.96 ± 0.051 | 3.28 ± 0.064
LFGMCESLYEPNLEPED [PUP3] | 2.77 ± 0.19 | 3.53 ± 0.2 | 3.32 ± 0.081 | 3.27 ± 0.1
TNQIFQSRRYNLRRHSD [SIN4] | 2.94 ± 0.045 | 3.18 ± 0.04 | 3.04 ± 0.045 | 3.08 ± 0.031
SDEVSRGIPRLSEDELR [SMC4] | 3.43 ± 0.14 | 3.69 ± 0.21 | 3.39 ± 0.14 | 3.58 ± 0.1
STEEIEYIELEYRDLYT [YMR129W/POM152] | 2.56 ± 0.11 | 3.04 ± 0.14 | 2.94 ± 0.13 | 2.72 ± 0.05
NAASGSNSNVTNPSSIF [YOR098C/NUP1] | 2.83 ± 0.049 | 2.74 ± 0.047 | 2.3 ± 0.049 | 2.73 ± 0.049
NEMLLKRVTKVKRLLFT [MTW1] | 1.26 ± 0.054 | 1.56 ± 0.049 | 1.21 ± 0.11 | 1.42 ± 0.036
LDSMIELFKDYKPGSIT [MED1] | 2.15 ± 0.074 | 1.94 ± 0.047 | 1.82 ± 0.1 | 1.99 ± 0.052
HLDSFNYFVDTDLKKII [RET1] | 2.69 ± 0.094 | 2.85 ± 0.08 | 2.67 ± 0.1 | 2.64 ± 0.038
VDIEYTRGRNIIMHKDV [RET1] | 2.44 ± 0.11 | 2.55 ± 0.13 | 2.92 ± 0.064 | 2.84 ± 0.1
DNSVEQGRRLGESIMSE [MCD1] | – | 3.41 ± 0.22 | – | 3.33 ± 0.12
YYSRITLLRLNELLDLT [RPN5] | 2.61 ± 0.067 | 1.77 ± 0.048 | 2.44 ± 0.065 | 1.97 ± 0.072
LLQSSIINKLIHIQSKE [POP3] | 2.49 ± 0.069 | 2.5 ± 0.044 | 1.91 ± 0.058 | 2.28 ± 0.048

Sequence | protein stability index (doa10∆) | protein stability index (pdr5∆) | protein stability index (san1∆) | protein stability index (ubr1∆)
EETSHLLTVTPGPRLLY [RPN10] | 2.61 ± 0.06 | 2.69 ± 0.074 | 2.54 ± 0.091 | 3.06 ± 0.057
NCKKKKKRKKKNKSAID [RMP1] | 2.57 ± 0.1 | 2.67 ± 0.13 | 2.79 ± 0.089 | 3.37 ± 0.16
PEGLLKSLWDYVKKNTE [TAF14] | 3.01 ± 0.17 | 2.12 ± 0.076 | – | 3.13 ± 0.094
KKSKRLDKVGKKKGGKK [LRP1] | 3.16 ± 0.15 | 2.43 ± 0.27 | 2.99 ± 0.12 | 3.24 ± 0.21
PLSQDELISLRKILESS [YIL149C/MLP2] | 2.45 ± 0.077 | 2.67 ± 0.067 | 2.15 ± 0.076 | 2.32 ± 0.093
FSQKEMAFNLLGLLTPE [FAS2] | 2.52 ± 0.077 | 2.32 ± 0.072 | 2.18 ± 0.12 | 2.42 ± 0.064
TQAKRIFLQQFLQELLK [SWI1] | 2.62 ± 0.072 | 2.42 ± 0.092 | 2.43 ± 0.082 | 2.1 ± 0.064
DAIQAGIWNDLGSGSNV [PUP1] | 2.71 ± 0.26 | – | – | –
GSGNNNEIESRQLTSLG [SNU114] | 3.4 ± 0.16 | 3.32 ± 0.16 | – | 3.19 ± 0.19
RFYQLGVDLKLKYSKRR [CSN12] | 1.26 ± 0.12 | 1.16 ± 0.1 | – | 1.15 ± 0.088
ANTGGGLFGANSNSNSG [YGL172W/NUP49] | 2.11 ± 0.11 | 2.74 ± 0.077 | 1.76 ± 0.17 | 2.22 ± 0.14
PETGDHVVGRIAEVGNK [RRP4] | 3.27 ± 0.076 | 3.44 ± 0.065 | 3.05 ± 0.1 | 3.08 ± 0.15
AIVVGWRAIIKAIFPNT [FAS1] | 2.44 ± 0.1 | 2.71 ± 0.14 | 2.41 ± 0.086 | 2.33 ± 0.15
IKHKHKKVKLAVLSYYK [RPS31] | 2.23 ± 0.047 | 2.59 ± 0.074 | 2.37 ± 0.073 | 2.25 ± 0.048
IEMYVQEASKQYTKDEQ [RPN2] | 3.3 ± 0.084 | 3.16 ± 0.091 | 3.06 ± 0.057 | 3.31 ± 0.069
SFIISSLDTLELESITE [NUT1] | 1.74 ± 0.075 | 1.64 ± 0.042 | 1.78 ± 0.083 | 1.78 ± 0.04
NSMEYTGKITKMFQDIR [CDC53] | 3.06 ± 0.27 | 3.41 ± 0.14 | 2.96 ± 0.085 | 3.28 ± 0.078
SPSYSPTSPNYSPTSPS [RPO21] | 2.85 ± 0.039 | 2.94 ± 0.04 | 2.97 ± 0.033 | 3.024 ± 0.026
KNISSQLDSKLMVFNDD [YGR119C/NUP57] | 2.12 ± 0.041 | 2.54 ± 0.052 | 2.24 ± 0.056 | 2.08 ± 0.029
QEYLNPVIDTQIANEFN [YDL116W/NUP84] | 2.85 ± 0.053 | 2.96 ± 0.058 | 2.71 ± 0.046 | 2.88 ± 0.052
HPFVFEEVEDQINPTRE [SNF2] | 3.36 ± 0.077 | 3.5 ± 0.13 | 2.94 ± 0.17 | 3.13 ± 0.086
DSTDNENSGKEMDEKSY [LIN1] | – | 3.26 ± 0.14 | 2.88 ± 0.29 | 3.49 ± 0.14
VTRFDEKQIEELLDNCI [SRB6] | 2.9 ± 0.21 | – | 3.21 ± 0.16 | 3.33 ± 0.12
RQMNLVITLLNNSSITL [YCS4] | 1.37 ± 0.05 | 1.18 ± 0.039 | 1.19 ± 0.08 | 1.35 ± 0.035
CDLSSKFNKSKAKFTSL [YCS4] | 2.72 ± 0.055 | 2.79 ± 0.07 | 2.98 ± 0.05 | 2.64 ± 0.037
SKLPDPERWLPLRDRST [SRP72] | 2.09 ± 0.067 | 2.91 ± 0.068 | 2.55 ± 0.077 | 2.46 ± 0.058
LGLFIHKISFSGTKSEV [YJL039C/NUP192] | 1.86 ± 0.072 | 2.14 ± 0.055 | 1.88 ± 0.085 | 2.12 ± 0.052
